# Measurements from US20240182864A1, “NOVEL CHEMICAL COMBINATIONS AND METHODS OF USE THEREOF, TOWARDS DIFFERENTIATION OF HUMAN PROGENITOR CELLS INTO FUNCTIONAL BETA CELLS” (Salk Institute for Biological Studies, priority 2021, published 2024).
# Tested on: H1 hESCs
# Test: Generation of pancreatic progenitors (stages 1-4) and PP 3D clusters, flow cytometry for PDX1/NKX6.1
# Type: cell-based, human
# Method: hESCs were maintained as feeder-free in mTeSR™1 (STEMCELL Technologies Inc.) according to the manufacturer's instructions. Before differentiation, adherent hESCs (at ˜90% confluence) were rinsed with PBS and then incubated with Accutase (Millipore) for 6-8 min at 37° C. Dissociated single cells were rinsed twice with DMEM/F12 and spun at 300 g for 3 min. The resulting cells were re-suspended in mTeSR™1 which was supplied with 10μM Y27632 (Sigma-Aldrich), and seeded on 1:30 diluted Matrigel (BD Biosciences)-coated dishes at a density of 55,000 cells/cm^2. The next day, the medium was exchanged for mTeSR™MI and maintained for one more day prior to differentiation initiation.
# Stage 1: Definitive Endoderm (3 days). […] Each 800 ml MS12 medium was made with 744 ml MCDB131 medium (ThermoFisher), 3.2 ml 45% glucose (Sigma), 20 ml 20% fat-acid free BSA, and 16 ml 7.5% sodium bicarbonate (Gibco).
# Stage 2: Posterior Foregut (3 days): after PBS rinse, cells are exposed to MS12 medium with KGF (Peprotech, 50 ng/ml), B27 (Gibco, 100×), Vitamin C (Vc, 0.25 mM, sigma) and dorsomorphin (0.75 μM). Cells were fed with fresh medium daily.
# Stage 3: Pancreatic endoderm (3 days): After PBS rinse, cells were exposed to DMEM with B27 (100×), retinoic acid (RA, 2 μM, Sigma), Noggin (100 ng/ml, Peprotech), SANTI (0.25 μM, sigma), Vitamin C (Vc, 0.25 mM, sigma), Pen/Strep (100×, Gibco) and Glutamax (100×, Gibco). Cells were fed with fresh medium every other day.
# Stage 4: Pancreatic progenitor (3-4 days): After PBS rinse, cells were exposed to DMEM with B27 (100×), EGF (100 ng/ml, Peprotech)+Nicotinamide (NICO, 10 mM; Sigma)+Noggin (100ng/ml)+Vc (0.25 mM). Cells were fed with fresh medium every other day.
# V-bottom plate based aggregation: stage-4 cells were rinsed with PBS and then incubated with Accutase (Millipore) for 10-15 min at 37° C. Dissociated single cells were rinsed twice with DMEM/F12 and spun at 300 g for 3 min. The resulting cells were re-suspended in an aggregation medium supplied with 10μM Y27632 (Sigma-Aldrich). Cell solution with 0.1-0.4 (according to experimental design) million cells was added into each well of V-bottom 96-well plate, followed by a spun at 300 g for 3 min. The plate was put into 37° C. incubator for 8-12 hours to form clusters. Aggregation medium was made of V4b-Medium+heparin (Sigma, H3149, 10 μg/ml)+ZnSO4 (10 μM, sigma, Z0251)+LDN193189 (LDN, Tocris, 100 nM)+T3 (1 μM, Sigma, T6397)+RA ([…])+SANTI (0.25 μM: Tocris)+GABA (1 mM, Sigma)+human EGF (100 ng/ml, Peprotech)+NICO (10 mM)+VC (0.25 mM). V4b-Medium (800 ml) was made of 360 ml MCDB 131 medium+180 ml F12 medium+180 ml KO-DMEM medium+3.9 ml Glucose (45%, Sigma)+80ml 20% FF-BSA+16 ml Sodium Bicarbonate (7.5%)+4 ml ITX+8 ml Pen/Strep+8ml Glutamax: all items were purchased from Thermo Fisher Scientific unless otherwise indicated.
# Single-cell suspension from cell cultures: Differentiated hESC cultures were rinsed with PBS and then incubated with 0.25% trypsin-EDTA (Life Technologies) at 37° C. for 1-3 minutes. The trypsin was neutralized with MEF medium. The dissociated cells were rinsed twice in PBS or DMEM/F12 medium for further analysis. For intracellular antibody staining, single cells were fixed in 200 μL of BD Cytofix/Cytoperm Buffer (BD Biosciences) at 4° C. for 20 minutes followed by three washes in BD Perm/Wash Buffer. Fixed cells were incubated in 150 μL of primary antibody buffer at 4° C. for 1 hour, followed by 30 minutes in a secondary antibody (if there is a secondary antibody) buffer after being rinsed twice in Perm/Wash Buffer. Stained cells were washed twice in Perm/Wash Buffer prior to analyses. The acquired data were analyzed by FlowJo.
# Efficient generation of PP 3D-clusters is responsible for generating functional βcells. An hPSC reporter line with NKX6.1-NLS-GFP has been generated by homologous recombination (FIG. 1A and data not shown), which aids in the study of functional β cell production protocols. […]
# [1] = Constant high-dose of Activin-A (115-115-115 ng/ml day 1-day 2-day 3)
# [2] = Constant low-dose of Activin-A (100-100-100 ng/ml day 1-day 2-day 3)
# [3] = Decreasing gradient dose of Activin-A (115-110-100 ng/ml day 1-day 2-day 3)
molecule,measurement,setting,value
"Activin-A: a TGFβ family member used at stage 1 (protein, UniProt P08476 311-426, looked up, Inhibin beta A chain) Inhibin beta A chain: GLECDGKVNICCKKQFFVSFKDIGWNDWIIAPSGYHANYCEGECPSHIAGTSGSSLSFHSTVINHYRMRGHSPFANLKSCCVPTKLRPMSMLYYDDGQNIIKKDIQNMIVEECGCS",NKX6.1-positve cells,[1],~20%-50%
same,PDX1-positve cells,[1],~90%
same,PDX1-postive/NKX6.1-positve cells,[1],~20%-50%
same,NKX6.1-positve cells,[2],~15%-50%
same,PDX1-positve cells,[2],~50%-80%
same,PDX1-postive/NKX6.1-positve cells,[2],~15%-50%
same,NKX6.1-positve cells,[3],~80%
same,PDX1-positve cells,[3],~93%
same,PDX1-postive/NKX6.1-positve cells,[3],~80%
same,cell density and cell heterogeneity at stage 4,constant low-dose Activin-A,appropriate cell density but resulting in high cell heterogeneity at stage 4
same,cell proliferation and cell density,high-dose Activin-A,severely reduced cell proliferation and resulted in suboptimal cell density
